Source: article PMC3769240

Biological target: Non-structural NS1 protein of human respiratory syncytial virus (hRSV) strain A (human respiratory syncytial virus strain A) (UniProt P0DOE9)
Test: dynamic light scattering; NS1SOs made by heat (10 minutes at 70°C in Tris 10 mM pH 8, DTT 1 mM); measured at 20°C

## Non-structural NS1 protein of human respiratory syncytial virus (hRSV) strain A (from UniProt P0DOE9 1-139) (natural protein)
  stoichiometry N (NS1 monomers per molecule of oligomer): 149
